What all share (assay): fluorescence polarisation
The target of test [1] is BAKΔC.
The target in test [2] is BAX (recombinant, tagless, full-length) (human) (UniProt Q07812).
In test [3] the target is BCL-XLΔC.
For test [4], the target named is MCL-1ΔNΔC (residues 172–327) (UniProt Q07820).
The target of test [5] is BFL-1/A1ΔC.

In PMC3617124 one finds IC50 and EC50 data, which are given here for three substances.

Sequence of MCL-1ΔNΔC (residues 172–327) (Q07820 172-327, stated change not applied): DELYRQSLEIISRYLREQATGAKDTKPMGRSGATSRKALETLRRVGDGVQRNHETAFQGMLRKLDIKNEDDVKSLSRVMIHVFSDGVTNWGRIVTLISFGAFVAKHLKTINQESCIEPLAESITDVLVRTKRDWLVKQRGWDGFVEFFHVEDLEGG
Sequence of BAX (recombinant, tagless, full-length) (human) (Q07812 whole entry): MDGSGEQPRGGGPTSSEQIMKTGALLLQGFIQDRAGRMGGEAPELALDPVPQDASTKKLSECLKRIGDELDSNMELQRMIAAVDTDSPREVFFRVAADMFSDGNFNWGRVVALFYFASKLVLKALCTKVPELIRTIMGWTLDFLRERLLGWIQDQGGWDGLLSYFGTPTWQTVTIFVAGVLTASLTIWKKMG
Sequence of BCL-XLΔC (Q07817 1-209, stated change not applied): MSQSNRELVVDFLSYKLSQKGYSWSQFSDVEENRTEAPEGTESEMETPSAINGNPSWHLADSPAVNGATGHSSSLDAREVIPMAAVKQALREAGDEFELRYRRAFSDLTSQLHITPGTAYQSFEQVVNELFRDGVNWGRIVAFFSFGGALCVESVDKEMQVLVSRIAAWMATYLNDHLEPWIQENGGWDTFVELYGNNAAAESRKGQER

As to “N-terminally acetylated BIM SAHB (peptide)”, the half-maximal inhibitory concentration (IC50) is 827 nM in test [1], 314 nM in test [2], 572 nM in test [3] and 136 nM in test [4].

Regarding “FITC-BIM SAHB (fluoresceinated stabilized α-helix of BCL-2 domain modeled after BIM BH3) (peptide)”, the results for the concentration for a half-maximal effect (EC50) in test [1], in test [2] and in test [4] were 173 nM, 283 nM and 19.8 nM, respectively.

“N-terminally acetylated BIM SAHB (peptide; other documents disagree on this pair)” came in with an IC50 in test [5] of 603 nM.
